Reference: paper PMC5606850, “Acidic C-terminal domains autoregulate the RNA chaperone Hfq” (eLife, 2017)
*: point of attachment. FITC = O=C1OC2(c3ccc(O)cc3Oc3cc(O)ccc32)c2ccc(NC(=S)*)cc21; Ahx = NCCCCCC(=O)O

How the values were obtained:
[1] = protein stability of Hfq65-K3 mutants; type: physicochemical, E. coli
[2] = tested on: RNA molecular beacon and Target RNA; assay: RNA annealing kinetics (molecular beacon and Target RNAs), stopped-flow fluorescence; type: biochemical; conditions: 50 nM molecular beacon, 100 nM Target, Hfq65 variants, TNK buffer, 30 °C
Protocol: (§1) Figure 2. CTD and RNA occupy the same rim binding site. […] The CTD linker is shown in purple, the acidic tip in red and the N-terminal FITC as a yellow star. Hfq core is shown in cyan, with basic rim patches in dark blue. […] (C) Reaction scheme for annealing an RNA molecular beacon to a target RNA (open bar) ([Hopkins et al., 2011]; [Panja et al., 2015]). (D) Progress curves for annealing 50 nM molecular beacon and 100 nM Target by 50 nM Hfq65 hexamer at 30°C, measured by stopped-flow fluorescence. See Figure 2—figure supplement 3 for further data. (E) Contribution of core residues to CTD binding. Interaction energy (Expected Energetic Contribution; EEC) in silico for a core residue in the Rosetta models (solid symbols and solid line; adjusted R^2 = 0.77) or the average annealing rates for Target and Target-A18 relative to Hfq65 (open symbols and dashed line; adjusted R^2 = 0.94) versus experimental CTD binding energy (∆∆G°) for each Hfq65 variant. The binding energy, ∆∆G° = –RTln(Kd^MUT/Kd), reflects the perturbation to CTD binding by a mutation in Hfq65. The interaction energy in silico or EEC is defined as the average energy of a tail–core interaction multiplied by the average number of tail–core interactions per model (Figure 1B, top and Equation 3). The relative annealing rate for Hfq65 variants, krel = kobs^MUT/kobs^WT, is <1 if the mutated residue is important for RNA annealing. Figure 2—figure supplement 1. SDS-PAGE of purified Hfq variants. […] Annealing of 100 nM Target RNA to 50 nM beacon RNA by Hfq65 and Hfq65 variants was measured by stopped flow fluorescence at 30°C in 1 × TNK buffer. […] The change in fluorescence emission intensity was normalized to the maximum fluorescence within an experiment. […]
To determine how much core residues that bind the CTD contribute to Hfq’s RNA annealing activity, we compared the effect of rim mutations on the rate of base pairing between an RNA molecular beacon and the 16 nt Target RNA by stopped-flow fluorescence spectroscopy (Figure 2C) ([Hopkins et al., 2011]). […]

[3] = SDS-PAGE oligomerization of purified Hfq variants; type: physicochemical, E. coli; conditions: 4–20% SDS-PAGE, ~2.8 µg protein, 2% SDS, boiled
Protocol: as §1, with “variants. WT Hfq assembles into hexamers and dodecamers that are stable to SDS-PAGE, which can be used to evaluate the oligomerization of Hfq variants. Purified Hfq protein (~2.8 µg) was separated on a 4–20% SDS-PAGE gel and stained with Coomassie blue (lanes 2–6). Samples were prepared in 2% SDS and boiled before loading. Lane 1, Protein standards (10 µL All Blue Precision Plus, […]).” for “variants.”

[4] = molecular target: Hfq65 (Hfq core, CTD deleted) (Escherichia coli, UniProt P0A6X3 1-65); assay: competition; displaces CTD-FITC peptide; strong; IC50 only in figure; Anisotropy: 10 mM Tris-HCl pH 7.5, 50 mM NaCl, 50 mM KCl, 30 C; CTD-FITC competition: 50 mM Tris-HCl pH 7.5, 30 C; pUC19 EMSA: 40 mM Tris-HCl pH 7.5, 0.14 mM EDTA, 35 mM NH4Cl, 3.7% glycerol, 25 C (competition legend 30 C); conditions: protein: recombinant, tags: untagged, chain copies: 6
Hfq102 (wild-type Hfq) = Hfq102 (wild-type Hfq) (Escherichia coli, UniProt P0A6X3 1-102); assay: competition; vs pUC19 EMSA; strongest, saturates at 1:1; Anisotropy: 10 mM Tris-HCl pH 7.5, 50 mM NaCl, 50 mM KCl, 30 C; CTD-FITC competition: 50 mM Tris-HCl pH 7.5, 30 C; pUC19 EMSA: 40 mM Tris-HCl pH 7.5, 0.14 mM EDTA, 35 mM NH4Cl, 3.7% glycerol, 25 C (competition legend 30 C); conditions: protein: recombinant, tags: untagged, chain copies: 6
Hfq102·pUC19 complex = assay: RNA or DNA competition of Hfq102·pUC19 complexes, EMSA; type: binding, E. coli
Protocol: Figure 5. CTD and RNAs inhibit DNA binding to Hfq by obstructing the basic rim patch. (A, B) Agarose gel electrophoretic mobility shift assays of 0–3.3 μM hexamer Hfq102, Hfq102-R16A, Hfq65 or Hfq65-R16A binding to 6 nM linear pUC19 DNA ([…]) at 25°C, stained with SYBR Gold. Hfq65 forms large aggregates that fail to enter the gel (Figure 5—figure supplement 1). (C, D) Line densitometry of DNA migration in (A, B). Free pUC19 (no Hfq) is shown in light grey. Samples with increasing Hfq concentration are shown in darker shades of grey. (E, F) RNA competition. Complexes of 0.5 μM Hfq102 hexamer and 6 nM linear pUC19 (black) were challenged by 0–2 μM RNA or DNA competitor (darker shades of red). pUC19 control in the absence of Hfq is shown in light grey. […] Digestion of Hfq65 and Hfq65-R16A with Proteinase K liberates DNA from Hfq•DNA aggregates, allowing it to be detected (lanes 9 and 10). […] The small proportion of Hfq65·DNA complexes remaining in the supernatant were only detected in the gel after treatment with salt. […]
Samples (10 µL) containing linear pUC19 (0.145 nmol bp), 0–3.333 µM Hfq hexamer, in 40 mM Tris-HCl pH 7.5, 0.14 mM EDTA, 35 mM NH4Cl, 3.7% (v/v) glycerol, 0.05% (w/v) bromophenol blue were incubated at 25°C for 30 min. […] The fluorescence intensity was measured on a line from the bottom edge of the well through the middle of the lane to visualize the migration of pUC19. […]

[5] = molecular target: T1, E. coli Hfq65 (Hfq core; truncated variant lacking the CTD) (E. coli, UniProt P0A6X3 1-65); assay: fluorescence polarisation; 45 nM FITC-labelled peptide titrated with Hfq65 or variant (0–100 µM Hfq monomer), 50 mM Tris·HCl pH 7.5 (low salt), 30 °C, duplicate, single-site isotherm; Kd in Hfq monomer; conditions: both partners purified
T1 construct: Untagged; Forms a homohexameric ring; also called core Hfq; Hfq65 core

Hfq65-K3Q
formation of stable protein [1]: neither Hfq65-K3S nor Hfq65-K3Q formed stable proteins

Hfq65-K3S
formation of stable protein [1]: neither Hfq65-K3S nor Hfq65-K3Q formed stable proteins

Hfq65-Q35A
observed annealing rate of Hfq65 rim mutants [2]: relatively unaffected

Hfq102-R16A: rim mutation R16A of full-length Hfq (printed R16A in b39)
oligomeric state on SDS-PAGE [3]: only forms hexamer (blue dot) and monomer

B1: RprA sRNA (structured_RNA)
RNA: GGGACGGUUAUAAAUCAACAUAUUGAUUUAUAAGCAUGGAAAUCCCCUGAGUGAAACAACGAAUUGCUGUGUGUAGUCUUUGCCCAUCUCCCACGAUGGGCUUUUUUUU
binding result [4]: binds

B2: RyhB sRNA (structured_RNA)
RNA: GGGCGAUCAGGAAGACCCUCGAGGAGAACCUGAAAGCACGACAUUGCUCACAUUGCUUCCAGUAUUACUUAGCCAGCCGGGUGCUGGCUUUUU
binding result (Hfq102 (wild-type Hfq)): binds | binding result [4]: binds

B3: RyhB: sRNA, transcribed in vitro (nucleic acid)
chain: B2 RNA
modifications: unmodified RNA
notes: sRNA, transcribed in vitro
competition against pUC19 DNA for binding to Hfq102 (Hfq102·pUC19 complex): strongest competitors

B4: ChiX sRNA (structured_RNA)
RNA: GGGACACCGUCGCUUAAAGUGACGGCAUAAUAAUAAAAAAAUGAAAUUCCUCUUUGACGGGCCAAUAGCGAUAUUGGCCAUUUUUUU
binding result (Hfq102 (wild-type Hfq); label: 32P in annealing EMSA): binds | binding result ([4]; label: 32P in annealing EMSA): binds

B5: ChiX: Class II sRNA, transcribed in vitro (nucleic acid)
chain: B4 RNA
modifications: unmodified RNA
notes: Class II sRNA, transcribed in vitro
competition against pUC19 DNA for binding to Hfq102 (Hfq102·pUC19 complex): strongest competitors

B6: DsrA sRNA (structured_RNA)
RNA: GGGAACACAUCAGAUUUCCUGGUGUAACGAAUUUUUUAAGUGCUUCUUGCUUAAGCAAGUUUCAUCCCGACCCCCUCAGGGUCGGGAUUUUUUU
binding result [4]: binds

B7: BsCTD-FITC (B. subtilis Hfq CTD peptide) (peptide)
peptide: {FITC-Ahx}-QLELE-OH
SMILES: CC(C)C[C@H](NC(=O)[C@H](CCC(=O)O)NC(=O)[C@H](CC(C)C)NC(=O)[C@H](CCC(N)=O)NC(=O)CCCCCNC(=S)Nc1ccc2c(c1)C(=O)OC21c2ccc(O)cc2Oc2cc(O)ccc21)C(=O)N[C@@H](CCC(=O)O)C(=O)O
notes: Hfq, Bacillus subtilis, C-terminal end of the CTD; also called BsCTD-FITC peptide
Kd [5]: 8.7 µM
